Positions count from the first letter of the chain named. In names and notes the source's numbering stands.

For assay [1], the target named is KDR receptor (soluble RIA of Examples 6 and 8) (UniProt P35968). The experiment in a line: soluble radio-immuno receptor-binding assay (RIA).
Assay [2] has as its target T1, KDR on KDR-transfected NIH3T3 cells (UniProt P35968 20-1356, limits assumed).
T1 construct: whole, on cells; also called KDR expressing NIH3T3 cells; KDR-transfected 3T3 cells
The experiment in a line: competitive displacement of 125I-VEGF (legend: 1-165; Example 7: 1-109) from KDR-transfected NIH3T3 cells. The protocol:
(§1) KDR or Flt-1 transfected NIH3T3 cells were prepared as described by Fuh et al., J. Biol. Chem., 273:11187-11204 (1998). The transfected cells were maintained in F12 media supplemented with 10% FBS and 400 ug/ml G418 (GibcoBRL). For the binding assays, the cells were plated in 12-wells plates at 1×10⁶/well to reach confluency next day. […] The plates were incubated at 4° C. for three hours and then washed two times with HBS with […].
On the technique in general: In a radioligand displacement assay an active substance lowers the binding of a labelled ligand.

In assay [3] the target is T2, Flt-1 on Flt-1-transfected NIH3T3 cells (UniProt P17948 27-1338, limits assumed).
T2 construct: whole, on cells; also called FLT-1 expressing NIH3T3 cells; Flt-1-transfected cells
T2 sequence (P17948 27-1338 limits assumed): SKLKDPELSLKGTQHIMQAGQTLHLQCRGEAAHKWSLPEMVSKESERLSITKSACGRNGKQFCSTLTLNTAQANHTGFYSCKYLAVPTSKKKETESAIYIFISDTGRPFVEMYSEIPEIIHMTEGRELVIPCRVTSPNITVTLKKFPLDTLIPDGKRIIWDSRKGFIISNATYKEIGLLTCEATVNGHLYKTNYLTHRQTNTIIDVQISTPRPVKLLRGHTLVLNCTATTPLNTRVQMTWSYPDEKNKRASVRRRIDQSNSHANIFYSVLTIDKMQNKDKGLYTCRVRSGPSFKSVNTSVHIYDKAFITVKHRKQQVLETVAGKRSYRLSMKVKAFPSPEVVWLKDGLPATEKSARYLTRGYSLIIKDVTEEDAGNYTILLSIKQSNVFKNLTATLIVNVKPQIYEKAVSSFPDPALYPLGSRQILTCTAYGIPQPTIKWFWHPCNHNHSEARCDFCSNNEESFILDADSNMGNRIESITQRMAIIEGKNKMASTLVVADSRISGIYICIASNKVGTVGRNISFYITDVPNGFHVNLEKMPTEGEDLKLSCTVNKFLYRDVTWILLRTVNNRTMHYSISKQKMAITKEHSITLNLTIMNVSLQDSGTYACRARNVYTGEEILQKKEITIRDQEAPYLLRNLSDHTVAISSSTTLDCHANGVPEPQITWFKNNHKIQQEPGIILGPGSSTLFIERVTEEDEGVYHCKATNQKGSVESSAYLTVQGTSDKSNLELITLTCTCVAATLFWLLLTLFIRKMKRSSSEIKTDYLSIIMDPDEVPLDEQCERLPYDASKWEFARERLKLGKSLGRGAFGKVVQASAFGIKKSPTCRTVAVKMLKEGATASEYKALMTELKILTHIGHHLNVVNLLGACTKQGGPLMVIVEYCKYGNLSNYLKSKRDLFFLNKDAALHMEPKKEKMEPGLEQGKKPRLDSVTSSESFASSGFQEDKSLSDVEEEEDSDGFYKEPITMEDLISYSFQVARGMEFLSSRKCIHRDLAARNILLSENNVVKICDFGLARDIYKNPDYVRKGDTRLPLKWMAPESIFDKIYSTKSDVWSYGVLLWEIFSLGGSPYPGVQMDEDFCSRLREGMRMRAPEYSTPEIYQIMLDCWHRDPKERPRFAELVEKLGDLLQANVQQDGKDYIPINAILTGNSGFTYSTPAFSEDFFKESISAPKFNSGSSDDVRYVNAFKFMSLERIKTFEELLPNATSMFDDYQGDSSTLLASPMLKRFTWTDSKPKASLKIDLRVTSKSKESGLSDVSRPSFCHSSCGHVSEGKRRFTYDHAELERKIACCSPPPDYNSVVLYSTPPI
The experiment in a line: competitive displacement of 125I-VEGF (legend: 1-165; Example 7: 1-109) from Flt-1-transfected NIH3T3 cells. On the procedure:
as §1

Assay [4] addresses gD-KDR receptor on CHO cells (UniProt P35968 20-1356). The experiment in a line: cell-based or functional assay.
For assay [5], the target named is T3, Flt-IgG (a chimeric Flt-human Fc molecule) (UniProt P17948 27-758, limits assumed).
T3 construct: Only described as a chimeric Flt-human Fc molecule; not shown: human Fc
T3 sequence (P17948 27-758 limits assumed, change not shown): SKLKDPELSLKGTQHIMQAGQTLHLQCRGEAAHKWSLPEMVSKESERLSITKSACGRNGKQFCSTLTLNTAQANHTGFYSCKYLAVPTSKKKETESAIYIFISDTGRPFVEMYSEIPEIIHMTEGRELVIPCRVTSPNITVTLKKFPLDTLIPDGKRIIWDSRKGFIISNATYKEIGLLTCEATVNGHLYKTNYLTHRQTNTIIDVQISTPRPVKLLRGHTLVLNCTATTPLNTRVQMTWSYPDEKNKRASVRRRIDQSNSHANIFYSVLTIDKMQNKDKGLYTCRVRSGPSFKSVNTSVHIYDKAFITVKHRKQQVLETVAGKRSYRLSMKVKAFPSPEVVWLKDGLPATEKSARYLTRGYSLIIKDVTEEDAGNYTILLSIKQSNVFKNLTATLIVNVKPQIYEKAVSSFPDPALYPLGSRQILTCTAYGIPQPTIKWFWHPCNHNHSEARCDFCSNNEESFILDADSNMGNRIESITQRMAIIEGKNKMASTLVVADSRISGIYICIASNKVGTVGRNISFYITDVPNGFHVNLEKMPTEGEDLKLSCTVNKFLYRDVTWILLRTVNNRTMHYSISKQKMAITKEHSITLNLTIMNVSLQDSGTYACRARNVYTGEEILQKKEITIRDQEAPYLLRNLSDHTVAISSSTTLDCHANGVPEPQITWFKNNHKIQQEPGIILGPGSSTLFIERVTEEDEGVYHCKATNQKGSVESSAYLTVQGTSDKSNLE
The assay can be described thus: competition ELISA vs biotinylated native VEGF, Flt-IgG captured by anti-Fc. On the procedure:
(§2) Receptor binding assays were performed in 96-well immunoplates (Maxisorp, Nunc-Immunoplate, Nalge Nunc International, Rochester, N.Y.). Each well was coated with 100 μl of a solution containing 2 μg/ml of rabbit F(ab′)2 to human IgG Fc (Jackson ImmunoResearch, West Grove, Pa.) in 50 mM carbonate buffer at pH 9.6 and incubated at 4° C. overnight. The supernatant was then discarded, the wells were washed three times in washing buffer (0.05% Tween 20 in PBS), and the plate was blocked (150 μl per well) with block buffer (0.5% BSA, 0.01% thimerosal in PBS) at room temperature for one hour. The supernatant was discarded, and the wells were washed.
The wells were filled with 100 μl of a solution containing Flt-IgG (a chimeric Flt-human Fc molecule) at 50 ng/ml in assay buffer (0.5% BSA, 0.05% Tween 20 in PBS). The wells were incubated at room temperature for 1 hour and then washed three times in wash buffer (0.05% Tween 20 in PBS).
Aliquots of the mixture (100 μl) were added to the precoated microtiter wells and the plate was incubated for 2 hours at room temperature. […] The wells were then incubated with 3,3′, 5,5′-tetramethyl benzidine (0.2 g/liter, Kirkegaard & Perry Laboratories, Gaithersburg, Md.) for about 10 minutes at room temperature. Absorbance was read at 450 nm on a Vmax plate reader (Molecular Devices, Menlo Park, Calif.).
On the technique in general: An ELISA detects its analyte on a solid surface through an enzyme-linked reagent.

The target in assay [6] is T4, KDR (1-3) monomer (UniProt P35968 20-327, limits assumed, biotin-labeled in the ELISA of Example 8).
T4 construct: domain: domains 1 to 3; Genentech reagent; also called domains 1 to 3 of KDR
T4 sequence (P35968 20-327 limits assumed): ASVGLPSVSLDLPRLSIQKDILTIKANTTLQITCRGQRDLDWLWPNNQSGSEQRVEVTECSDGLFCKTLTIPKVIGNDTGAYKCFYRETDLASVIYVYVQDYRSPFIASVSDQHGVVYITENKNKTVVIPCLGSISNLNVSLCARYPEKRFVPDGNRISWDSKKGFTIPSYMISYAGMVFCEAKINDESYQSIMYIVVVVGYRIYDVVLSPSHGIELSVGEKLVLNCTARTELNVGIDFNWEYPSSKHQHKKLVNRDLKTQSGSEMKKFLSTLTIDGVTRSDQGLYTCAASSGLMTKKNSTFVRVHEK
The experiment in a line: competition ELISA vs biotinylated VEGF (8-109), soluble KDR (1-3) captured by MAKD5. On the procedure: as §2, with “containing 8” for “containing 2”, “of a monoclonal antibody” for “of rabbit F(ab′)2”, “to KDR known as MAKD5 (Genentech, South San Francisco, Calif.)” for “to human IgG Fc (Jackson ImmunoResearch, West Grove, Pa.)”, “was” for “was then”
(§3) Aliquots of this mixture (100 μl) were added to the precoated microtiter wells and the plate was incubated for 1 hour at room temperature. […] The wells were then incubated with 3,3′, 5,5′-tetramethyl benzidine (0.2 gram/liter; Kirkegaard & Perry Laboratories, Gaithersburg, Md.) for about 10 minutes at room temperature. Absorbance was read at 450 nm on a Vmax plate reader (Molecular Devices, Menlo Park, Calif.).
(§4) Titration curves were fit with a four-parameter nonlinear regression curve-fitting program (KaleidaGraph, Synergy Software, Reading, Pa.).

Assay [7] concerns the target KDR on human umbilical vein endothelial cells (HUVEC) (human, UniProt P35968 20-1356). The assay can be described thus: cell-based or functional assay.
For assay [8], the target named is KDR receptor (soluble RIA of Examples 6 and 8) (UniProt P35968 20-764, limits assumed). The assay can be described thus: radio-immuno receptor-binding assay (RIA).
Chain of KDR receptor (soluble RIA of Examples 6 and 8) (UniProt P35968 20-764, limits assumed) (P35968 20-764 limits assumed): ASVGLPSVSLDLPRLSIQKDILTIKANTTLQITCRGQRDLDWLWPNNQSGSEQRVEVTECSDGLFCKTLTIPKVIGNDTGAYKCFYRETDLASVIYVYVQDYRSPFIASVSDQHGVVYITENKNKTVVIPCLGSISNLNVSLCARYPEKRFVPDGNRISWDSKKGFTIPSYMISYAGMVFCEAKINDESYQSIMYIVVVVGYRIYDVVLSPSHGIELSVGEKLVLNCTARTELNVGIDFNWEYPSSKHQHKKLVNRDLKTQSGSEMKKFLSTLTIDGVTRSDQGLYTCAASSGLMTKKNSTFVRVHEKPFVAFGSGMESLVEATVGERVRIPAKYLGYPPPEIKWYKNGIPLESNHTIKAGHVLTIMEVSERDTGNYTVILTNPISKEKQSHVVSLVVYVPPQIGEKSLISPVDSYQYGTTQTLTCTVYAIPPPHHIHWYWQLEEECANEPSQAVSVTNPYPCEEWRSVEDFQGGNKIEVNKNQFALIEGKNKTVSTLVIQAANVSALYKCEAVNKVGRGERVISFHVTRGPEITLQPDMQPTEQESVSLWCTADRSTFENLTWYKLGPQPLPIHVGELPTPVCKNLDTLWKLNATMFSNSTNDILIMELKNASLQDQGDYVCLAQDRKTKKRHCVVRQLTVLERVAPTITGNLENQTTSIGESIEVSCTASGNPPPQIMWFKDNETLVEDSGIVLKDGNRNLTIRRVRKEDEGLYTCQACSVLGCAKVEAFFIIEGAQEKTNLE
Assay [9] deals with FLT-1 receptor (soluble RIA of Examples 6 and 8) (UniProt P17948 27-758, limits assumed). The experiment in a line: radio-immuno receptor-binding assay (RIA).
Chain of FLT-1 receptor (soluble RIA of Examples 6 and 8) (P17948 27-758 limits assumed): as the sequence (P17948 27-758 limits assumed, change not shown) above
The target in assay [10] is T4, KDR (1-3) monomer. The experiment in a line: competition ELISA: inhibits binding of biotinylated native VEGF (8-109) to KDR (1-3) captured by antibody MAKD5 (Example 2). The protocol:
as §2, with “containing 8” for “containing 2”, “of a monoclonal antibody” for “of rabbit F(ab′)2”, “to KDR known as MAKD5 (Genentech, South San Francisco, Calif.)” for “to human IgG Fc (Jackson ImmunoResearch, West Grove, Pa.)”, “was” for “was then”
as §3, §4

Chain of KDR on human umbilical vein endothelial cells (HUVEC) (P35968 20-1356): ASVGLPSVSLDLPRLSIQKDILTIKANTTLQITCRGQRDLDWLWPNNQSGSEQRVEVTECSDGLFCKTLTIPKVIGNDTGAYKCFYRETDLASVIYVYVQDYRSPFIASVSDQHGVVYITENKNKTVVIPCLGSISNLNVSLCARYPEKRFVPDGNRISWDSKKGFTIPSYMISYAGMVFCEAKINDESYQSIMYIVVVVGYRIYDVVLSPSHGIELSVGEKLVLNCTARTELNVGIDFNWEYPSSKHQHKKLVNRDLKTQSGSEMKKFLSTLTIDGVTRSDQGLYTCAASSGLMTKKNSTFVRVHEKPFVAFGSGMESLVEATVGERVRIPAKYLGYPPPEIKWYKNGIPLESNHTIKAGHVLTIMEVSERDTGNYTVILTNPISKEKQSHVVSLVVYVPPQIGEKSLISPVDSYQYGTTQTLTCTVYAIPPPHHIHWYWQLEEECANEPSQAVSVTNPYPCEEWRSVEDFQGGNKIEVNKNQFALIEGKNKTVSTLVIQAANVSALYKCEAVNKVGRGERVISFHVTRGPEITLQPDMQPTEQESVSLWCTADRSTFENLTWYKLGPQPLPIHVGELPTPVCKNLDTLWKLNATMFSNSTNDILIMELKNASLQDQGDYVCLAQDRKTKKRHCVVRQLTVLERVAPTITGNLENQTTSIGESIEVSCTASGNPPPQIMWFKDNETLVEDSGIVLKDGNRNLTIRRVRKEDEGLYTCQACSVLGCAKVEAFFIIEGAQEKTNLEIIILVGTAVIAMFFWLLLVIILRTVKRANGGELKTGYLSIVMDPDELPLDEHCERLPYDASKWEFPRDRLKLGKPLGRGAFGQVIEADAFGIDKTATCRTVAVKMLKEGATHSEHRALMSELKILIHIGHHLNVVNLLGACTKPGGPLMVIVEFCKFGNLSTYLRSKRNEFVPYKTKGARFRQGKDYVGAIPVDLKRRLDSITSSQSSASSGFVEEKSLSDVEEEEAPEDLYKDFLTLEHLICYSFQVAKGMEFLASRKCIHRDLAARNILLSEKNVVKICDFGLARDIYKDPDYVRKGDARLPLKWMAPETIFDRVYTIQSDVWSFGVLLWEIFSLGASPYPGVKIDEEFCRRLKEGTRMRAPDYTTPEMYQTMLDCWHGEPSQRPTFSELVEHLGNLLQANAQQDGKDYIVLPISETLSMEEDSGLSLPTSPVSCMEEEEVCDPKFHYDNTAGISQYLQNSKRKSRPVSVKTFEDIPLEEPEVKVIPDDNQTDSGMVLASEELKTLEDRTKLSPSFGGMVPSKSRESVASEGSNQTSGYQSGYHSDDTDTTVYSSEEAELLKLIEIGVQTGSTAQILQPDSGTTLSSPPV
T1 sequence (P35968 20-1356 limits assumed): as the sequence (P35968 20-1356) above
Chain of KDR receptor (soluble RIA of Examples 6 and 8) (UniProt P35968) (P35968 20-764 limits assumed): as the sequence (P35968 20-764 limits assumed) above

B1: Flt-sel (I43A/I46A/Q79A/I83A, VEGF 1-109 form) (ligand, human, UniProt P15692-4 27-135, looked up)
chain: APMAEGGGQNHHEVVKFMDVYQRSYCHPIETLVDIFQEYPDEAEYAFKPSCVPLMRCGGCCNDEGLECVPTEESNITMAIMRAKPHQGQHIGEMSFLQHNKCECRPKKD
notes: also called Flt-1-sel; Flt-1 selective variant
Take B1: the fold reduced KDR-binding affinity (against native VEGF) in [1] was more than 470 fold. Moreover, the binding result in assay [2] is reported as “no binding (tested: log -6.7 M (about 2e-7 M))”; in assay [3], “binds”.

B2: LK-VRB-3s (ligand, human, UniProt P15692-4 27-135, looked up)
chain: B1 chain with F17I, M18E, Y21F, Q22K, Y25S, A43I, A46I, A79Q, A83I
Broadly, the IC50 is the concentration needed to halve the response being measured. As for B2, in assay [4], the “Phosphorylation-Inducing Activity (KIRA), midpoint concentration” value worked out at 2 nM and the “Phosphorylation-Inducing Activity (KIRA), ratio to native VEGF (8-109)” value was 1 fold. In assay [5], the IC50 amounted to 170 nM and the “Relative Binding Affinity (ratio to native VEGF (8-109))” value worked out at 400 fold. Also, in assay [6], the IC50 worked out at 1 nM and the “Relative Binding Affinity (ratio to native VEGF (8-109))” value stood at 1 fold.

B3: LK-VRB-4s (ligand, human, UniProt P15692-4 27-135, looked up)
chain: B1 chain with F17I, M18E, Y21F, Q22E, Y25I, A43I, A46I, A79Q, A83I
For B3, in assay [4], the “Phosphorylation-Inducing Activity (KIRA), midpoint concentration” value came to 1 nM and the “Phosphorylation-Inducing Activity (KIRA), ratio to native VEGF (8-109)” value came out at 0.5 fold. Further, in [5], the IC50 was determined as 100 nM and the “Relative Binding Affinity (ratio to native VEGF (8-109))” value amounted to 200 fold. In assay [6], the IC50 was 1 nM and the “Relative Binding Affinity (ratio to native VEGF (8-109))” value came out at 1 fold.

B4: LK-VRB-2s* (ligand, human, UniProt P15692-4 27-135, looked up)
chain: B1 chain with A43I, A46I, D63S, G65M, L66R, A79Q, A83I
notes: also called KDR selective variant
On to B4, for which, in assay [4], the “Phosphorylation-Inducing Activity (KIRA), midpoint concentration” value came out at 2 nM. Besides, the “Endothelial Cell Proliferation Activity (HUVEC, 3H-thymidine), concentration” value in assay [7] stood at 0.05 nM. Besides, the figures for the “IC50 (read off the curve)” value in [2] and in [3] were approximately 0.8 nM and approximately 10 nM, respectively.

B5: LK-VRB-8s* (ligand)
chain: B1 chain with Y21L, A43I, A46I, D63S, G65M, L66R, A79Q, A83I
Turning to B5, in [7], the “Endothelial Cell Proliferation Activity (HUVEC), ratio to native VEGF (8-109)” value is 1 fold and the “Endothelial Cell Proliferation Activity (HUVEC, 3H-thymidine), concentration” value worked out at 0.5 nM. For the same molecule, in assay [6], the IC50 amounted to 0.5 nM and the “Relative Binding Affinity (ratio to native VEGF (8-109))” value was 0.5 fold.

B6: LK-VRB-1s* (ligand, human, UniProt P15692-4 27-135, looked up)
chain: B1 chain with M18E, Y21L, Q22R, Y25S, A43I, A46I, A79Q, A83I
B6: in assay [4], the “Phosphorylation-Inducing Activity (KIRA), midpoint concentration” value was determined as 1 nM and the “Phosphorylation-Inducing Activity (KIRA), ratio to native VEGF (8-109)” value was 0.5 fold. For the same molecule, in [7], the “Endothelial Cell Proliferation Activity (HUVEC), ratio to native VEGF (8-109)” value came to 0.2 fold and the “Endothelial Cell Proliferation Activity (HUVEC, 3H-thymidine), concentration” value was 0.1 nM. For the same molecule, in assay [8], the “Relative Binding Affinity (ratio to native VEGF 165)” value was 20 fold. In addition, in assay [9], the “Relative Binding Affinity (ratio to native VEGF 165)” value turned out to be 14000 fold. In addition, in assay [5], the IC50 turned out to be 2700 nM and the “Relative Binding Affinity (ratio to native VEGF (8-109))” value is 6000 fold. In addition, in assay [6], the IC50 was found to be 1 nM and the “Relative Binding Affinity (ratio to native VEGF (8-109))” value is 1 fold.

B7: LK-VRB-9s (ligand, human, UniProt P15692-4 27-135, looked up)
chain: B1 chain with Q22R, A43I, A46I, D63S, G65M, L66R, A79Q, A83I
Regarding B7, the “Relative Binding Affinity (ratio to native VEGF (8-109))” value worked out at 300 fold in assay [5] and 0.5 fold in [6]. Further, the IC50 in assay [6] stood at 0.5 nM.

B8: LK-VRB-7s* (ligand, human, UniProt P15692-4 27-135, looked up)
chain: B1 chain with M18E, A43I, A46I, D63S, G65M, L66R, A79Q, A83I
On to B8, for which, in assay [7], the “Endothelial Cell Proliferation Activity (HUVEC), ratio to native VEGF (8-109)” value is 1 fold and the “Endothelial Cell Proliferation Activity (HUVEC, 3H-thymidine), concentration” value stood at 0.5 nM. For the same molecule, in [6], the IC50 was 1 nM and the “Relative Binding Affinity (ratio to native VEGF (8-109))” value was 1 fold.

B9: LK-VRB-5s (ligand, human, UniProt P15692-4 27-135, looked up)
chain: B1 chain with A43I, A46I, D63S, L66R, A79Q, A83I
B9: in assay [4], the “Phosphorylation-Inducing Activity (KIRA), midpoint concentration” value was 1 nM and the “Phosphorylation-Inducing Activity (KIRA), ratio to native VEGF (8-109)” value stood at 0.5 fold. In assay [5], the IC50 worked out at 233 nM and the “Relative Binding Affinity (ratio to native VEGF (8-109))” value is 550 fold. Besides, in assay [6], the IC50 amounted to 1 nM and the “Relative Binding Affinity (ratio to native VEGF (8-109))” value is 1 fold.

B10: LK-VRB-6s (ligand, human, UniProt P15692-4 27-135, looked up)
chain: B1 chain with A43I, A46I, D63S, G65A, L66T, A79Q, A83I
Turning to B10, in assay [4], the “Phosphorylation-Inducing Activity (KIRA), midpoint concentration” value was found to be 1 nM and the “Phosphorylation-Inducing Activity (KIRA), ratio to native VEGF (8-109)” value was determined as 0.5 fold. Also, in [5], the IC50 came out at 4 nM and the “Relative Binding Affinity (ratio to native VEGF (8-109))” value is 10 fold. Moreover, in [6], the IC50 was found to be 0.5 nM and the “Relative Binding Affinity (ratio to native VEGF (8-109))” value was 0.5 fold.

B11: native VEGF (8-109) (ligand, human, UniProt P15692 214-315, looked up)
chain: GQNHHEVVKFMDVYQRSYCHPIETLVDIFQEYPDEIEYIFKPSCVPLMRCGGCCNDEGLECVPTEESNITMQIMRIKPHQGQHIGEMSFLQHNKCECRPKKD
modifications: biotinylated where used as tracer
Regarding B11, in [4], the “Phosphorylation-Inducing Activity (KIRA), midpoint concentration” value came to 2 nM. For the same molecule, the “Endothelial Cell Proliferation Activity (HUVEC, 3H-thymidine), concentration” value in [7] came to 0.5 nM. Further, in assay [5], the IC50 was 0.42 nM. The “IC50 (read off the curve)” value in [10] was approximately 2 nM.

B12: LK-VRB-2f (ligand, human, UniProt P15692-4 27-191, looked up)
chain: APMAEGGGQNHHEVVKFMDVYQRSYCHPIETLVDIFQEYPDEIEYIFKPSCVPLMRCGGCCNSEMRECVPTEESNITMQIMRIKPHQGQHIGEMSFLQHNKCECRPKKDRARQENPCGPCSERRKHLFVQDPQTCKCSCKNTDSRCKARQLELNERTCRCDKPRR
notes: also called KDR-selective VEGF variant; KDR-sel
With B12, the “Endothelial Cell Proliferation Activity (HUVEC, 3H-thymidine), concentration” value in [7] turned out to be 0.05 nM. The molecule further returned an IC50 in assay [5] of 19 nM.

B13: WT VEGF (ligand, human, UniProt P15692-4 27-191, looked up)
VEGF monomer: B12 chain with S63D, M65G, R66L
With B13, the “IC50 (read off the curve)” value in assay [3] is approximately 0.04 nM.

For the origin of these results see US20060269997A1 (Genentech, published 2006).
